The record followed here is patent US20180037644A1 (Pfizer, published 2018).

Assay [1] deals with T1, human IL-33 WT, reduced with DTT (human, UniProt O95760 112-270).
T1 construct: Wild-type cysteines, FLAG tag in the entry; reduced with 3 mM DTT before use; also called huIL33 wt; hu IL-33 (WT + DTT)
T1 sequence: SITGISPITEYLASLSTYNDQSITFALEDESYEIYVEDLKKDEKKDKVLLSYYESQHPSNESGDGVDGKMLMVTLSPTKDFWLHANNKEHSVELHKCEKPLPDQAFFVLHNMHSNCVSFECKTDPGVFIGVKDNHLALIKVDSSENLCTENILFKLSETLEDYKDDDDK
Put plainly: KinExA, fixed-antigen format, both partners in solution. How it is done:
(§1) HuIL33 wt was reduced in 3 mM DTT for a minimum of two hrs prior to use. Affinity determinations were made at room temperature using the fixed antigen assay format. Equilibrium binding was achieved by incubation at 25° C. for 72 hrs. Data analysis was performed with the KinExA Pro software version 3.6.5 (Sapidyne). […] The “drift correction” was used when appropriate. Multiple curves were obtained, both receptor and KD controlled, in independent experiments and analyzed using the “n-curve analysis” tool to obtain global best fit values for the KD and active concentration. The software reports each best fit value along with a 95% confidence interval.
(§2) Table 13. Affinity determinations were made using the fixed-antigen assay format. […] The 95% confidence interval, shown in parentheses with the kD, and percent error are calculated by KinExA software based on a least-squares fit of the theoretical binding equation to the measured signals.
(In general: A kinetic exclusion assay measures how much of one partner remains free in solution.)

The target of assay [2] is T2, human IL-33 (mm2) (human, UniProt O95760 112-270).
T2 construct: Variant in which all four cysteine residues are serine; the entry carries an N-terminal Met and a C-terminal His6; Biotinylated in some assays; also called hIL-33 (mm2); huIL-33 (mm2)
T2 chain: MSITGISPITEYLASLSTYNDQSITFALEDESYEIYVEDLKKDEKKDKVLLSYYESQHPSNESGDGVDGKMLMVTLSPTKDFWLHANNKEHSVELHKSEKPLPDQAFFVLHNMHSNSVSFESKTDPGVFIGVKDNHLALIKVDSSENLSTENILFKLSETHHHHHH
The description is as above. On the procedure: as §1, §2

The target of assay [3] is T2, human IL-33 (mm2). The assay can be described thus: SPR, biotinylated IL-33 on streptavidin sensor, Fab in solution; immobilized IL-33 (mm2); Fab in solution. How it is done:
(§3) Surface plasmon resonance experiments were conducted in two formats.
In general terms: SPR reads the build-up and loss of mass on a sensor chip optically.

Assay [4] deals with T3, human IL-33 WT (R&D) (human, UniProt O95760 112-270).
T3 construct: R&D Systems Cat. No. 3625-IL/CF, wild-type cysteines; DTT pretreatment in some assays is said under assay or readout; also called IL-33 (R&D); hIL-33 (R&D)
T3 sequence: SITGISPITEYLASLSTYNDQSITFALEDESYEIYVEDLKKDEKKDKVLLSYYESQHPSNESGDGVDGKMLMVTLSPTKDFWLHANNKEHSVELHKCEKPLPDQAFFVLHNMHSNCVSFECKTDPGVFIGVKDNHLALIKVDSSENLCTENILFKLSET
Put plainly: SPR, Fab captured by anti-human Fab kit, reduced IL-33 (R&D) in solution; captured Fab, reduced WT IL-33 in solution.

The target of assay [5] is T3, human IL-33 WT (R&D). The assay can be described thus: SPR, Fab captured by anti-human Fab kit, reduced IL-33 (R&D) in solution. How it is done: (§4) Fab fragment affinity was measured by two methods, surface plasmon resonance using a BIAcore instrument, with either Fab or IL-33 captured on the chip, and solution equilibrium affinity measurements using a KinExA instrument, with both Fab and IL-33 in solution.
as §3

The next assay deals with T4, IL-1α (UniProt P01583 113-271).
T4 sequence (looked up): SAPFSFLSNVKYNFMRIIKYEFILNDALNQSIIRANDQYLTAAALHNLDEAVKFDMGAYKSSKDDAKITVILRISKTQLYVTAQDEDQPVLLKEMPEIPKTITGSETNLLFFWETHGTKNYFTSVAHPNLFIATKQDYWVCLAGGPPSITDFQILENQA
Put plainly: SPR (Biacore T200), Fab captured on the chip, cytokine injected. The source says: (§5) The panel of cytokines included IL-1α, IL-1β, IL-18, IL-36α, and IL-36γ.

For the next assay, the target named is T5, IL-36γ (UniProt Q9NZH8 18-169).
T5 sequence (looked up): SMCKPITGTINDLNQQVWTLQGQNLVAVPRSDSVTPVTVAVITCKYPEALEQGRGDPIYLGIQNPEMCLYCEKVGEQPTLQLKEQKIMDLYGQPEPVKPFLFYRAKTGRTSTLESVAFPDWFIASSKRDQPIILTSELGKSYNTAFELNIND
Described as above.
Description: as §5

The target of another assay is IL-1β (UniProt P01584 117-269). The assay is described as above.
Description: as §5

Another assay deals with T6, IL-36α (UniProt Q9UHA7 6-158).
T6 sequence (looked up): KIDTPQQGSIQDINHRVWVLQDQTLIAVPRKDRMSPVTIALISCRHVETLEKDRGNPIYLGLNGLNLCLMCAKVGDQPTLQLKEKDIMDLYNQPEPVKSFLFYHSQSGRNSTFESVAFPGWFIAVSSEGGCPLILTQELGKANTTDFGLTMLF
The description is as above.
Description: as §5

A further assay concerns the target T7, IL-18 (UniProt Q14116 37-193).
T7 sequence (looked up): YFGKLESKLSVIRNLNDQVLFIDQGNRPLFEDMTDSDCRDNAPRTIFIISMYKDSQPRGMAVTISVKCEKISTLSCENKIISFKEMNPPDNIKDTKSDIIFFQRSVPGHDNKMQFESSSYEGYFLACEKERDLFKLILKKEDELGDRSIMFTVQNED
Described as above.
Description: as §5

Assay [6] has as its target T2, human IL-33 (mm2). The assay can be described thus: SPR, Fab captured by anti-human Fab kit, IL-33 in solution. How it is done:
as §4, §3

The target in assay [7] is T2, human IL-33 (mm2). Put plainly: SPR, biotinylated IL-33 on streptavidin sensor, Fab in solution. How it is done: as §4, §3

B1: 7E8 CDR graft Fab (Fab, V domains shown)
VH: EVQLVESGGGLVQPGGSLRLSCAASGFTFSSYWMYWVRQAPGKGLEWVASITPNGGNTYYPDSVKGRFTISRDNAKNSLYLQMNSLRAEDTAVYYCARGHYYYTSYSLGYWGQGTLVTVSS
VL: DIQMTQSPSSLSASVGDRVTITCKASQNINKHLDWYQQKPGKAPKLLIYFTNNLQTGVPSRFSGSGSGTDFTLTISSLQPEDFATYYCFQYNNGWTFGGGTKVEIKR
notes: also called 7E8 Fab; CDR grafted-7E8 Fab
Broadly, the Kd is the concentration at which binding is half-saturated. Read a high Kd as a looser complex. One may read the kon as the rate constant with which the complex forms. Low values mean slower complex formation, high ones faster complex formation. The term koff denotes a measure of how fast the partners let go of each other. A higher koff goes with fast dissociation. On to B1, for which the Kd in assay [1] worked out at 4.04 pM; with human IL-33 (mm2) [2], 0.351 pM; in the assay with human IL-33 WT (R&D) [5], 290 pM; with human IL-33 (mm2) [6], 250 pM; with human IL-33 (mm2) [7] it was 3.06 pM. The kon with human IL-33 (mm2) [3] came to 5.47e+06 M⁻¹ s⁻¹; in the assay with human IL-33 WT (R&D) [4] it was 2.06e+06 M⁻¹ s⁻¹; with human IL-33 (mm2) [6], 1.38e+06 M⁻¹ s⁻¹. In addition, the koff with human IL-33 WT (R&D) [5] was determined as 0.000377 s⁻¹; with human IL-33 (mm2) [6], 0.000301 s⁻¹; with human IL-33 (mm2) [7], 1.68e-05 s⁻¹. Besides, the binding result in the assay with IL-1α, with IL-36γ, with IL-1β, with IL-36α and with IL-18 was “no binding” throughout.
